Measurements: patent US20230265151A1, “GIP/GLP1 CO-AGONIST COMPOUNDS” (priority 2020, published 2023)
Numbering of substitutions follows the chain as printed. *1 amine or outer side, *2 acyl side, *3 side chain or, on linkers, in order; H or OH if unused. Where no end group is shown, it is not given here. Side-chain parts run from the residue outwards. [ ]: non-standard residue; d: D form. The star is where a group is joined. Decanoyl(10-(4-HOOC-PhO)) = O=C(O)c1ccc(OCCCCCCCCCC(=O)*)cc1; αMePhe(2-F) = C[C@](N)(Cc1ccccc1F)C(=O)O; γGlu = O=C(O)[C@H](CCC(=O)[*:2])N[*:1]; C14 diacid = O=C(O)CCCCCCCCCCCCC(=O)*; αMeY = C[C@](N)(Cc1ccc(O)cc1)C(=O)O; αMeL = CC(C)C[C@](C)(N)C(=O)O; Orn = NCCC[C@H](N)C(=O)O; AEEA = NCCOCCOCC(=O)O; Aib = CC(C)(N)C(=O)O

T1: human GIP receptor (human) (UniProt P48546)
T1 sequence (looked up): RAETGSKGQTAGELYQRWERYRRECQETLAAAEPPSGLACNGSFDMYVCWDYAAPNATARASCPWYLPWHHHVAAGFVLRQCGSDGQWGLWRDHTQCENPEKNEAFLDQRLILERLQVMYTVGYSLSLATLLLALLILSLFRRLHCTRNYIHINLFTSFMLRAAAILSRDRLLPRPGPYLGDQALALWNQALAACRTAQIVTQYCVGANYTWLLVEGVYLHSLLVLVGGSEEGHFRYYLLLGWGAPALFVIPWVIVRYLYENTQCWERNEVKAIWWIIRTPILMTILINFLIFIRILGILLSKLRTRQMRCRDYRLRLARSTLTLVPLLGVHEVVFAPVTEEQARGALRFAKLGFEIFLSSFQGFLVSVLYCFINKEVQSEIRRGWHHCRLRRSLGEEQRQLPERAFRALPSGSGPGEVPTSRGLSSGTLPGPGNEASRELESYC

T2: human GIP receptor (human, UniProt P48546 22-466)
T2 sequence (looked up): T1 sequence (looked up)

T3: human GIP receptor (human, UniProt P48546 22-466)
T3 sequence (looked up): T1 sequence (looked up)

B1: Example 331 (peptide)
peptide: YXEGTXTSDXXIXLDXIAQXKFIXXLIKGGPSSGAPPPS
modifications: Y-Aib-EGT-αMeF(2F)-TSD-4Pal-Aib-I-αMeL-LD-Orn-IAQ-Aib-K(2-[2-(2-Amino-ethoxy)-ethoxy]-acetyl)2-(γ-Glu)-(11-(4-carboxyphenoxy)undecanoyl)FI-(D-Glu)-αMeY-LIK((2-[2-(2-Amino-ethoxy)-ethoxy]-acetyl)2-(γ-Glu)-(11-(4-carboxyphenoxy)undecanoyl)GGPSSGAPPPS-NH2)
B2: Example 364 (peptide)
peptide: B1 peptide with X10Y, K21E, X24K
modifications: Y-Aib-EGT-αMeF(2F)-TSDY-Aib-I-αMeL-LD-Orn-IAQ-Aib-EFIK((2-[2-(2-Amino-ethoxy)-ethoxy]-acetyl)-(γ-Glu)-(2-[2-(2-Amino-ethoxy)-ethoxy]-acetyl)2-CO-(CH2)12-CO2H)-αMeY-LIK((2-[2-(2-Amino-ethoxy)-ethoxy]-acetyl)-(γ-Glu)-(2-[2-(2-Amino-ethoxy)-ethoxy]-acetyl)2-CO-(CH2)12-CO2H)GGPSSGAPPPS-NH2
B3: Example 363 (peptide)
peptide: B1 peptide with X10Y, K21E, X24K
modifications: Y-Aib-EGT-αMeF(2F)-TSDY-Aib-I-αMeL-LD-Orn-IAQ-Aib-EFIK((2-[2-(2-Amino-ethoxy)-ethoxy]-acetyl)2-(γ-Glu)-(2-[2-(2-Amino-ethoxy)-ethoxy]-acetyl)-CO-(CH2)12-CO2H)-αMeY-LIK((2-[2-(2-Amino-ethoxy)-ethoxy]-acetyl)2-(γ-Glu)-(2-[2-(2-Amino-ethoxy)-ethoxy]-acetyl)-CO-(CH2)12-CO2H)GGPSSGAPPPS-NH2
B4: Example 355 (peptide)
peptide: B1 peptide with X10Y, K21X, X24K
modifications: Y-Aib-EGT-αMeF(2F)-TSDY-Aib-I-αMeL-LD-Orn-IAQ-Aib-Orn-FIK((2-[2-(2-Amino-ethoxy)-ethoxy]-acetyl)2-(γ-Glu)-(10-(4-carboxyphenoxy)decanoyl))-αMeY-LIK((2-[2-(2-Amino-ethoxy)-ethoxy]-acetyl)2-(γ-Glu)-(10-(4-carboxyphenoxy)decanoyl))GGPSSGAPPPS-NH2
B5: Example 337 (peptide)
peptide: B1 peptide with I17K, K21E
modifications: Y-Aib-EGT-αMeF(2F)-TSD-4Pal-Aib-I-αMeL-LD-Orn-K((2-[2-(2-Amino-ethoxy)-ethoxy]-acetyl)-(γ-Glu)-CO-(CH2)12-CO2H)AQ-Aib-EFI-(D-Glu)-αMeY-LIK((2-[2-(2-Amino-ethoxy)-ethoxy]-acetyl)-(γ-Glu)-CO-(CH2)12-CO2H)GGPSSGAPPPS-NH2
B6: Example 351 (peptide)
peptide: B1 peptide with I17K, K21X
modifications: Y-Aib-EGT-αMeF(2F)-TSD-4Pal-Aib-I-αMeL-LD-Orn-K((2-[2-(2-Amino-ethoxy)-ethoxy]-acetyl)2-(α-Glu)-(10-(4-carboxyphenoxy)decanoyl))AQ-Aib-Om-FI-(D-Glu)-αMeY-LIK((2-[2-(2-Amino-ethoxy)-ethoxy]-acetyl)2-(γ-Glu)-(10-(4-carboxyphenoxy)decanoyl))GGPSSGAPPPS-NH2
B7: Example 354 (peptide)
peptide: B1 peptide with K21X, X24K
modifications: Y-Aib-EGT-αMeF(2F)-TSD-4Pal-Aib-I-αMeL-LD-Orn-IAQ-Aib-Orn-FIK((2-[2-(2-Amino-ethoxy)-ethoxy]-acetyl)2-(γ-Glu)-(10-(4-carboxyphenoxy)decanoyl))-αMeY-LIK((2-[2-(2-Amino-ethoxy)-ethoxy]-acetyl)2-(γ-Glu)-(10-(4-carboxyphenoxy)decanoyl))GGPSSGAPPPS-NH2
B8: Example 336 (peptide)
peptide: B1 peptide with I17K, K28E
modifications: Y-Aib-EGT-αMeF(2F)-TSD-4Pal-Aib-I-αMeL-LD-Orn-K((2-[2-(2-Amino-ethoxy)-ethoxy]-acetyl)-(γ-Glu)-CO-(CH2)12-CO2H)AQ-Aib-K((2-[2-(2-Amino-ethoxy)-ethoxy]-acetyl)-(γ-Glu)-CO-(CH2)12-CO2H)FI-(D-Glu)-αMeY-LIEGGPSSGAPPPS-NH2
B9: Example 352 (peptide)
peptide: B1 peptide with X10Y, I17K, K21X
modifications: Y-Aib-EGT-αMeF(2F)-TSDY-Aib-I-αMeL-LD-Orn-K((2-[2-(2-Amino-ethoxy)-ethoxy]-acetyl)2-(γ-Glu)-(10-(4-carboxyphenoxy)decanoyl))AQ-Aib-Om-FI-(D-Glu)-αMeY-LIK((2-[2-(2-Amino-ethoxy)-ethoxy]-acetyl)2-(γ-Glu)-(10-(4-carboxyphenoxy)decanoyl))GGPSSGAPPPS-NH2
B10: Example 340 (peptide)
peptide: B1 peptide
modifications: Y-Aib-EGT-αMeF(2F)-TSD-4Pal-Aib-I-αMeL-LD-Orn-IAQ-Aib-K((2-[2-(2-Amino-ethoxy)-ethoxy]-acetyl)-(γ-Glu)-CO-(CH2)12-CO2H)FI-(D-Glu)-αMeY-LIK((2-[2-(2-Amino-ethoxy)-ethoxy]-acetyl)-(γ-Glu)-CO-(CH2)12-CO2H)GGPSSGAPPPS-NH2
B11: Example 341 (peptide)
peptide: YXEGTXTSDXXIXLDXIAQXKFIXXLIEGGPSSGAPPPSK
modifications: Y-Aib-EGT-αMeF(2F)-TSD-4Pal-Aib-I-αMeL-LD-Orn-IAQ-Aib-K((2-[2-(2-Amino-ethoxy)-ethoxy]-acetyl)-(γ-Glu)-CO-(CH2)12-CO2H)FI-(D-Glu)-αMeY-LIEGGPSSGAPPPSK((2-[2-(2-Amino-ethoxy)-ethoxy]-acetyl)-(γ-Glu)-CO-(CH2)12-CO2H)-NH2
B12: Example 356 (peptide)
peptide: Y[Aib]EGT[αMePhe(2-F)]TSDV[Aib]I[αMeL]LD[Orn]IAQ[Aib][Orn]FIK([AEEA-AEEA-γGlu-Decanoyl(10-(4-HOOC-PhO))])[αMeY]LIK([AEEA-AEEA-γGlu-Decanoyl(10-(4-HOOC-PhO))])GGPSSGAPPPS-NH2
B13: Example 330 (peptide)
peptide: Y[Aib]EGT[αMePhe(2-F)]TSDV[Aib]I[αMeL]LD[Orn]IAQ[Aib]K([AEEA-AEEA-γGlu-Decanoyl(10-(4-HOOC-PhO))])FI[dE][αMeY]LIK([AEEA-AEEA-γGlu-Decanoyl(10-(4-HOOC-PhO))])GGPSSGAPPPS-NH2
B14: Example 329 (peptide)
peptide: Y[Aib]EGT[αMePhe(2-F)]TSDV[Aib]I[αMeL]LD[Orn]IAQ[Aib]K([AEEA-AEEA-γGlu-C14 diacid])FI[dE][αMeY]LIK([AEEA-AEEA-γGlu-C14 diacid])GGPSSGAPPPS-NH2
modifications: N-terminus assumed
SMILES: CC[C@H](C)[C@H](NC(=O)[C@H](CCCN)NC(=O)[C@H](CC(=O)O)NC(=O)[C@H](CC(C)C)NC(=O)[C@](C)(CC(C)C)NC(=O)[C@@H](NC(=O)C(C)(C)NC(=O)[C@@H](NC(=O)[C@H](CC(=O)O)NC(=O)[C@H](CO)NC(=O)[C@@H](NC(=O)[C@](C)(Cc1ccccc1F)NC(=O)[C@@H](NC(=O)CNC(=O)[C@H](CCC(=O)O)NC(=O)C(C)(C)NC(=O)[C@@H](N)Cc1ccc(O)cc1)[C@@H](C)O)[C@@H](C)O)C(C)C)[C@@H](C)CC)C(=O)N[C@@H](C)C(=O)N[C@@H](CCC(N)=O)C(=O)NC(C)(C)C(=O)N[C@@H](CCCCNC(=O)COCCOCCNC(=O)COCCOCCNC(=O)CC[C@H](NC(=O)CCCCCCCCCCCCC(=O)O)C(=O)O)C(=O)N[C@@H](Cc1ccccc1)C(=O)N[C@H](C(=O)N[C@H](CCC(=O)O)C(=O)N[C@@](C)(Cc1ccc(O)cc1)C(=O)N[C@@H](CC(C)C)C(=O)N[C@H](C(=O)N[C@@H](CCCCNC(=O)COCCOCCNC(=O)COCCOCCNC(=O)CC[C@H](NC(=O)CCCCCCCCCCCCC(=O)O)C(=O)O)C(=O)NCC(=O)NCC(=O)N1CCC[C@H]1C(=O)N[C@@H](CO)C(=O)N[C@@H](CO)C(=O)NCC(=O)N[C@@H](C)C(=O)N1CCC[C@H]1C(=O)N1CCC[C@H]1C(=O)N1CCC[C@H]1C(=O)N[C@@H](CO)C(N)=O)[C@@H](C)CC)[C@@H](C)CC
B15: Example 350 (peptide)
peptide: Y[Aib]EGT[αMePhe(2-F)]TSDV[Aib]I[αMeL]LD[Orn]K([AEEA-AEEA-γGlu-C14 diacid])AQ[Aib][Orn]FI[dE][αMeY]LIK([AEEA-AEEA-γGlu-C14 diacid])GGPSSGAPPPS-NH2

Tests used:
Assay in all cases: cell-based or functional assay
hGLP-1R = hGLP-1R (Homo sapiens, UniProt P43220)
[1] = target: T1, human GIP receptor (human)
[2] = target: human glucagon receptor (human) (UniProt P47871)
human glucagon receptor [3] = target: human glucagon receptor (human, UniProt P47871 26-477)
human GLP-1 receptor [4] = target: human GLP-1 receptor (human, UniProt P43220 24-463)
human GIP receptor [5] = target: T2, human GIP receptor
human glucagon receptor [6] = target: human glucagon receptor (human, UniProt P47871 26-477); remark: listed apart in the source
Target sequence in this assay (P47871 26-477): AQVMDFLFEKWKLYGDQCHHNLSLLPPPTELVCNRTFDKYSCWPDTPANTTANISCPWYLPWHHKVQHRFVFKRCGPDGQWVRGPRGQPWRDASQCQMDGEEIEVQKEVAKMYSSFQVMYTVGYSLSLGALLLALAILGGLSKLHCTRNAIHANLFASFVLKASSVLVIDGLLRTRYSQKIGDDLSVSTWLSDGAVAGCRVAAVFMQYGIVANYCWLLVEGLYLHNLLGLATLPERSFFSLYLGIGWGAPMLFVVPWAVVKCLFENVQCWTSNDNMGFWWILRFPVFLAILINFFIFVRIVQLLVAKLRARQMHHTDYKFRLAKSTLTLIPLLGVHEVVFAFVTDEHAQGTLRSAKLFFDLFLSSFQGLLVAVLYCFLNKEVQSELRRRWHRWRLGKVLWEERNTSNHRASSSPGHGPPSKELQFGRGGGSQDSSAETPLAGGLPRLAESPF

human GLP-1 receptor [7] = target: human GLP-1 receptor (human, UniProt P43220 24-463); remark: listed apart in the source
human GIP receptor [8] = target: T3, human GIP receptor; remark: listed apart in the source

Binder | cAMP EC50 (hGLP-1R) [nM] | cAMP Emax (hGLP-1R) [%] | cAMP EC50 [1] [nM] | cAMP Emax [1] [%] | cAMP EC50 [2] [nM] | cAMP EC50 (1.0% HSA) (human glucagon receptor [3]) [nM] | cAMP EC50 (1.0% HSA) (human GLP-1 receptor [4]) [nM] | cAMP Emax (1.0% HSA) (human GLP-1 receptor [4]) [%] | cAMP EC50 (1.0% HSA) (human GIP receptor [5]) [nM] | cAMP EC50 (1.0% HSA) (human glucagon receptor [6]) [nM] | cAMP EC50 (1.0% HSA) (human GLP-1 receptor [7]) [nM] | cAMP EC50 (1.0% HSA) (human GIP receptor [8]) [nM] | cAMP Emax (1.0% HSA) (human GLP-1 receptor [7]) [%] | cAMP Emax (1.0% HSA) (human GIP receptor [5]) [%] | cAMP Emax (1.0% HSA) (human GIP receptor [8]) [%]
B1 | 0.436 | 99.6 | 0.0113 | 101 | > 9950 | > 9950 | 223 | 114 | 8.31 |  |  |  |  |  | 
B2 |  |  |  |  |  |  |  |  |  | > 9950 | 13 | 0.895 |  |  | 
B3 |  |  |  |  |  |  |  |  |  | > 9950 | 14.3 | 0.976 |  |  | 
B4 |  |  |  |  |  |  |  |  |  | > 9950 | 11.3 | 1.81 | 109 |  | 
B5 | 0.444 | 107 | 0.0151 | 103 | > 10100 | > 10100 | 53.6 |  | 2.65 |  |  |  |  |  | 
B6 | 0.397 | 100 | 0.0185 | 102 | > 9950 | > 9950 | 5.8 | 91 | 0.722 |  |  |  |  | 67.9 | 
B7 |  |  |  |  |  |  |  |  |  | > 9950 | 7.25 | 0.857 | 95.9 |  | 67.5
B8 | 0.338 | 107 | 0.0136 | 109 | > 10100 | > 10100 | 47 | 103 | 2.92 |  |  |  |  |  | 
B9 | 0.262 | 99.5 | 0.0106 | 98.3 | > 9950 | > 9950 | 5.46 | 93.5 | 0.277 |  |  |  |  | 71.3 | 
B10 | 0.409 | 105 | 0.0206 | 95.2 | > 9950 | > 9950 | 122 | 112 | 9.91 |  |  |  |  | 87.9 | 
B11 | 0.329 | 99.9 | 0.0127 | 91.4 | > 9950 | > 9950 | 95.8 | 113 | 5.74 |  |  |  |  | 83.6 | 
B12 |  |  |  |  |  |  |  |  |  | > 9950 | 23.4 | 2.47 |  |  | 82.7
B13 | 0.477 | 103 | 0.0185 | 112 | > 9950 | > 9950 | 85.2 | 85 | 6.26 |  |  |  |  | 103 | 
B14 | 0.353 | 104 | 0.015 | 109 | > 9950 | > 9950 | 74.7 | 88.3 | 5.44 |  |  |  |  | 100 | 
B15 | 0.202 | 95.9 | 0.0288 | 101 | > 9950 | > 9950 | 6.4 | 91.4 | 5.82 |  |  |  |  |  | 
